The values below come from US20130035289A1, “PHARMACEUTICAL COMPOSITION FOR TREATMENT OF THROMBOSIS-RELATED DISEASES COMPRISING A FRAGMENT OF PROLACTIN (PRL)-GROWTH HORMONE (GH)-PLACENTAL LACTOGEN (PL)-FAMILY PROTEIN” (UNIVERSITE DE LIEGE, priority 2010, published 2013).

For experiment [1], the target named is T1, uPA (Homo sapiens, UniProt P00749+P05121).
T1 construct: endogenous in cells; host or cells: HUVEC
Kind of experiment: Double immunofluorescence staining on HUVEC, co-localization with uPA. Format: cell-based. The note with it: non permeabilized, 160 ng/ml. The protocol: HUVEC were grown to 70% on gelatin-coated 35 mm dishes. After incubation at 37° C. with 14K hGH (160 ng/ml) or 16K hPRL (160 ng/ml), cells were washed with PBS at room temperature, non permeabilized and incubated for 1 hr at room temperature with mouse anti uPA (American Diagnostica INC. Greenwich, Conn.) 1/100, Rabbit anti Prolactin (Dako) 1/100 or rabbit anti human GH (home made) 1/100. Endothelial cells were washed in PBS and incubated with FITC horse anti mouse antibody (Vector Laboratory) and Texas Red Goat anti rabbit (Jackson Laboratory).
HUVECs were grown to 70% confluence on gelatin-coated 35-mm dishes. After incubation for 3 h with 14K GH (160 ng/ml) or 16K PRL (160 ng/ml), the cells were washed with PBS at room temperature and incubated for 1 h at room temperature under non-permeabilization conditions with mouse anti uPA (American Diagnostica INC) diluted 1/100, rabbit anti prolactin (Dako) diluted 1/100, or rabbit anti human GH (home made) diluted 1/100. Endothelial cells were washed in PBS and incubated with FITC horse anti mouse (Vector Laboratory) and Texas red goat anti rabbit antibodies (Jackson Laboratory). […] After 3 washes in PBS for 10 min, the slides were covered with coverslips in mounting medium (Victor Laboratories Inc.) and analyzed by fluorescence microscopy.

Experiment [2] relates to endothelial cells. Kind of experiment: Endothelial cell adhesion assay on vitronectin. Format: cell-based, bovine. Particulars: for increase of cell adhesion: absence of PAI-1 (si-RNA); for pro-adhesion effect: recombinant wild type PAI-1 added to culture medium. The text has this:
ID NO: 35); PAI-1 […] ID NO: 36).

In experiment [3] the target is T2, PAI-1 (Homo sapiens, UniProt P05121).
T2 construct: gift of Pr; P. Declerck
T2 sequence (P05121 24-402): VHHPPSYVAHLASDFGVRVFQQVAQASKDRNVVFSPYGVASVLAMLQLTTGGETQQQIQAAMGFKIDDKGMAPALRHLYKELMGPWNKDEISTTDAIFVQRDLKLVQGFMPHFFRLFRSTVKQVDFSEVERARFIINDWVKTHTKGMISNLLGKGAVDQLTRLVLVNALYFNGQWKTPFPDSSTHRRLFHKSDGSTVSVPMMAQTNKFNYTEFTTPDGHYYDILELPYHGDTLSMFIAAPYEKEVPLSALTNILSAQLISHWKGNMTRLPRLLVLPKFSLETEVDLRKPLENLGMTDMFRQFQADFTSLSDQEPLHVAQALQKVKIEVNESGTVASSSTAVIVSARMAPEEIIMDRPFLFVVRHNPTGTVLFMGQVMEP
Kind of experiment: Gal4 yeast two-hybrid system. Format: binding.

Experiment [4] deals with T2, PAI-1. Kind of experiment: Co-immunoprecipitation with anti-PAI-1 antibody and Western blot, human PAI-1. Format: binding. The note with it: for complex with recombinant wild type PAI-1 (co-immunoprecipitation): 10 min at 37° C.; for complex with endogenous PAI-1 from HUVEC culture medium: conditioned medium of HUVEC; for interaction with PAI-1 in plasma samples: human plasma. The method, then:
(§1) The interaction was further confirmed by pull-down affinity assays. For the immunoprecipitation 4 μg of recombinant 16K hPRL or 14 hGH were mixed with 3 μg of recombinant wt PAI-1, 500 μl of conditioned media from HUVEC cells, 300 μl of human plasma or 100 μl of mouse plasma. The mixtures were incubated for 10 min at 37° C. 6 μg of mouse monoclonal antibody against PAI-1 (clone 33H1F7, recognize human and mouse PAI-1) was added to each tube and incubated overnight at 4° C. under rotation. For the experiments with mice expressing 16K hPRL, 300 μl of plasma from mice injected with Null-Ad or 16K-Ad adenovirus were collected 5 days after virus injection, and immunoprecipitation was performed as described above with same PAI-1 monoclonal antibody (33H1F7). Fifty microliters of protein A agarose was added to the mix and incubated overnight at 4° C. under rotation. After centrifugation for 1 min at 6000 rpm the supernatants were discarded and the pellets (containing the beads) were washed 5 times with PBS. After a new centrifugation, the beads were resuspended in 30 μl 1×β-mercaptoethanol loading buffer and boiled at 100° C. for 5 min, then left on ice for 5 min. The beads were centrifuged for 5 min at 4° C., then the supernatants were subjected to SDS-PAGE (12% acrylamide) for Western blot analysis.
(§2) For Western Blot Analysis cytoplasmic cell lysate, samples of different CoIP and mouse plasma were separated by SDS-PAGE (12% and 10%) and transferred to a polyvinylidene fluoride membrane (Milipore Corp., Bedford, Mass.). Blots were blocked overnight with 5% milk in Tris-buffered saline with 0.1% Tween 20 and probed for 1 h at RT with primary antibodies: rabbit polyclonal anti-hPRL (DAKO) or rabbit polyclonal anti hGH (home made). After three washes with Tris-buffered saline containing 0.1% Tween 20, antigen-antibody complexes were detected with peroxidase-conjugated goat anti-rabbit secondary antibody and an enhanced fluoro-chemiluminescent system (ECL-plus; Amersham Biosciences, Arlington Heights, Ill.).
(Immunoblotting shows a protein as a band on a membrane.)

The target of experiment [5] is T3, PAI-1 (Mus musculus, UniProt P22777).
T3 construct: from tissue; host or cells: BalbC Njrj mice, in vivo (blood)
T3 sequence (P22777 23-402): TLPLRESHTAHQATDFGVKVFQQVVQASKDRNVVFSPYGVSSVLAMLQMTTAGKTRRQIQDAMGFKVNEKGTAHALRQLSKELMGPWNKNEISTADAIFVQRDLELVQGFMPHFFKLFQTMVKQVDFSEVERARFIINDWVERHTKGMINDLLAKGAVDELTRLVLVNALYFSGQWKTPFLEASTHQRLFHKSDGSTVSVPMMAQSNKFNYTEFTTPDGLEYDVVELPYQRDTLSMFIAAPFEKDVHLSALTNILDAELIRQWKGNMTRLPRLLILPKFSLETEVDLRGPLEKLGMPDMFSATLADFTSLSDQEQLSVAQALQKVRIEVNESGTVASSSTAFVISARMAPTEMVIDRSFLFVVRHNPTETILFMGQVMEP
Kind of experiment: Co-immunoprecipitation with anti-PAI-1 antibody and Western blot, mouse PAI-1. The experiment is classed as binding. Particulars: for interaction with PAI-1 in plasma samples: mouse plasma. The protocol:
as §1, §2

Experiment [6] relates to ABAE cells. Kind of experiment: Endothelial cell migration (wound assay). Particulars: for anti-migratory function: down-regulation of PAI-1 expression by si-RNA. Format: cell-based, bovine. The method, then: A layer of confluent ABAE cells in a 48-well tissue culture dish coated with 0.2% gelatin was wounded with a head of 200-μl tips. The experiment was performed in the presence of 50 ng/ml VEGF and 10 ng/ml bFGF. […] ID NO: 35); PAI-1 […] ID NO: 36).

Experiment [7] has as its system uPA. Kind of experiment: Immunoprecipitation with uPA in presence or absence of PAI-1. The experiment is classed as binding. The protocol:
Western blot analysis of 16K PRL and 14K GH after their immunoprecipitation with uPA in the presence or in the absence of PAI-1. r14K GH and r16K PRL: recombinant proteins controls loaded on gels, no IP performed. (b) HUVEC were incubated with 14K GH or 16K PRL for 2 hours and then subjected to immunofluorescence analysis for uPA and 14K GH or 16K PRL Labellings appears in white for uPA (left panels), 14K GH or 16K PRL (middle panels).

[8] abbreviates: PAI-1 si-RNA transfected cells plus added human PAI-1.
The mark [9] stands for this setting: recombinant wild type PAI-1 added to culture medium.
The mark [10] stands for this setting: absence of PAI-1, data not shown.

B1: 16K hPRL: 16K N-terminal human prolactin fragment, recombinant, produced and purified from E. coli (protein)
chain: LPICPGGAARCQVTLRDLFDRAVVLSHYIHNLSSEMFSEFDKRYTHGRGFITKAINSCHTSSLATPEDKEQAQQMNQKDFLSLIVSILRSWNEPLYHLVTEVRGMQEAPEAILSKAVEIEEQTKRLLEGMELIVSQVHP
As for B1, the “co-localization with uPA” value in experiment [1] was “co-localised at the cell surface”. Moreover, in experiment [2], the “increase of cell adhesion” value is recorded as “not seen” and the pro-adhesion effect result is recorded as “reduced significantly”. The “interaction with PAI-1 in yeast two-hybrid system” value in experiment [3] is recorded as “interacts”. In experiment [4], the “complex with recombinant wild type PAI-1 (co-immunoprecipitation)” value is recorded as “formation of 16K PRL/PAI-1”, the “complex with endogenous PAI-1 from HUVEC culture medium” value is listed as “able to form a complex” and the “interaction with PAI-1 in plasma samples” value is “interaction was also demonstrated”. Also, in experiment [5], the “interaction with PAI-1 in plasma samples” value is given as “interaction was also demonstrated”. The “complex with endogenous murine PAI-1 in circulation” value in experiment [5] (plasma of wild type mice 5 days after 16K-Ad injection) was “complex formation”. Also, in experiment [6] (setting [8]), the anti-migratory effect result was “restored”. In experiment [6], the anti-migratory function entry is recorded as “reduced significantly”. The anti-migratory effect entry in experiment [6] (setting [9]) is listed as “reduced significantly”. Moreover, the “complex with uPA (immunoprecipitation)” value in experiment [7] (setting [10]) is “does not form complex”. Also, the “complex with uPA (immunoprecipitation)” value in experiment [7] (in the presence of PAI-1) is given as “formation of uPA/PAI-1/16K PRL”.

B2: 14K hGH: 14K N-terminal fragment of human growth hormone, recombinant, produced and purified from E. coli (protein)
chain: MFPTIPLSRLFDNAMLRAHRLHQLAFDTYQEFEEAYIPKEQKYSFLQNPQTSLSFSESIPTPSNREETQQKSNLELLRISLLLIQSWLEPVQFLRSVFANSLVYGASDSNVYDLLKDLEEGIQTLMGRLEDGSP
As to B2, the “co-localization with uPA” value in experiment [1] is given as “co-localised at the cell surface”. In experiment [2], the “increase of cell adhesion” value is given as “not seen” and the pro-adhesion effect result is listed as “reduced significantly”. Besides, in experiment [3], the “interaction with PAI-1 in yeast two-hybrid system” value is on record as “found to interact”. In experiment [4], the “complex with recombinant wild type PAI-1 (co-immunoprecipitation)” value was found to be 14K GH/PAI-1, the “complex with endogenous PAI-1 from HUVEC culture medium” value was “able to form a complex” and the “interaction with PAI-1 in plasma samples” value is “interaction was also demonstrated”. Further, the “interaction with PAI-1 in plasma samples” value in experiment [5] is listed as “interaction was also demonstrated”. The anti-migratory effect entry in experiment [6] (setting [8]) was “restored”. Besides, the anti-migratory function result in experiment [6] is “reduced significantly”. Also, in experiment [6] (setting [9]), the anti-migratory effect result is “reduced significantly”. Moreover, the “complex with uPA (immunoprecipitation)” value in experiment [7] (setting [10]) is recorded as “does not form complex”. In addition, the “complex with uPA (immunoprecipitation)” value in experiment [7] (in the presence of PAI-1) is “uPA/PAI-1/14K GH complexes”.
